Results on 62 variants are retold here after the Human Domainome abundance scans (Beltran et al. 2025).

± gives the uncertainty stated by the source.

B1: Activity-dependent neuroprotector homeobox protein, residues 770 to 810; numbered along this chain, Q9H2P0 (parent)
chain: FLTKYFNKQPYPTRREIEKLAASLWLWKSDIASHFSNKRKK

Variants of B1 are the subject of this series. The experiment in a line: abundance fitness (aPCA) (normalised: wild type 0, dead -1); higher = more abundant; growth selection in yeast, the domain comes from the species named. Particulars: Homo sapiens.
Take FLTKYFNKQPYPTRRTIEKLAASLWLWKSDIASHFSNKRKK [E16T]: the abundance fitness was -0.065 ± 0.076. As to FLTKYFNKQPYPTRRWIEKLAASLWLWKSDIASHFSNKRKK [E16W], the abundance fitness turned out to be 0.173 ± 0.089. Next, FLTKYFNKQPYPTRREIEKLAASLWLWKSDQASHFSNKRKK [I31Q]: -0.116 ± 0.058; FLTKYFNKQPYPTRREIEKLAASLWLWKSDVASHFSNKRKK [I31V]: 0.16 ± 0.056; FLTKYFNKQPYPTRREIEKLAASLWLWKSDGASHFSNKRKK [I31G]: -0.129 ± 0.072. KLTKYFNKQPYPTRREIEKLAASLWLWKSDIASHFSNKRKK [F1K]: the abundance fitness was -0.36 ± 0.33.

As for FLTKYFNKQPYPTRREIEKKAASLWLWKSDIASHFSNKRKK [L20K], the abundance fitness was determined as 0.036 ± 0.14.

For the variant FLTKYFNKQPYPTRREIEKCAASLWLWKSDIASHFSNKRKK [L20C], the abundance fitness came out at 0.124 ± 0.094.

Regarding FLTKYFNKQPYPTRREIEKLAASLWLWKSDIASNFSNKRKK [H34N], the abundance fitness was -0.107 ± 0.096.

In the case of FLTKYFNKQPYWTRREIEKLAASLWLWKSDIASHFSNKRKK [P12W], the abundance fitness was -0.235 ± 0.087.

Regarding FLTKYFNKQPYGTRREIEKLAASLWLWKSDIASHFSNKRKK [P12G], the abundance fitness came out at 0.099 ± 0.051. Next, FLTKYFNKQPYTTRREIEKLAASLWLWKSDIASHFSNKRKK [P12T]: -0.142 ± 0.079; FLTKYFNKQPYFTRREIEKLAASLWLWKSDIASHFSNKRKK [P12F]: -0.402 ± 0.12; FLTKYFNKQPYDTRREIEKLAASLWLWKSDIASHFSNKRKK [P12D]: 0.092 ± 0.098. On to FLTKYFNKQPYPTRREIEKLAASLWHWKSDIASHFSNKRKK [L26H], for which the abundance fitness was determined as 0.253 ± 0.074.

FLTKYFNKQPYPTRREIEKLAASLWWWKSDIASHFSNKRKK [L26W]: the abundance fitness amounted to 0.044 ± 0.075. For the variant FLTKYFNKQPYPTRREIEKLAASLWIWKSDIASHFSNKRKK [L26I], the abundance fitness is -0.134 ± 0.063. Next, FLTKYFNKQPYPTRREIEKLAASLWVWKSDIASHFSNKRKK [L26V]: 0.037 ± 0.056; FLTVYFNKQPYPTRREIEKLAASLWLWKSDIASHFSNKRKK [K4V]: -0.815 ± 0.43. Next, FLTSYFNKQPYPTRREIEKLAASLWLWKSDIASHFSNKRKK [K4S]: -0.749 ± 0.12; FLTCYFNKQPYPTRREIEKLAASLWLWKSDIASHFSNKRKK [K4C]: -0.698 ± 0.18; FLTDYFNKQPYPTRREIEKLAASLWLWKSDIASHFSNKRKK [K4D]: -0.644 ± 0.19. Next, FLTKYFNKQPYPTRREIEKLAASLWLWKSDIASHFSNKRKQ [K41Q]: 0.153 ± 0.088. FLTKYFNKQPYPTRREIEKLAASLWLWKSDIASHFSNKRKM [K41M]: the abundance fitness came out at 0.082 ± 0.12. Next, FLTKYFNKQPYPTDREIEKLAASLWLWKSDIASHFSNKRKK [R14D]: -0.826 ± 0.28; FLTKYFNKQPYPTKREIEKLAASLWLWKSDIASHFSNKRKK [R14K]: -0.048 ± 0.27; FLTKYRNKQPYPTRREIEKLAASLWLWKSDIASHFSNKRKK [F6R]: -0.163 ± 0.044. Next, FLTKYDNKQPYPTRREIEKLAASLWLWKSDIASHFSNKRKK [F6D]: -0.837 ± 0.085; FLTKYSNKQPYPTRREIEKLAASLWLWKSDIASHFSNKRKK [F6S]: -0.76 ± 0.068.

As to FLTKYMNKQPYPTRREIEKLAASLWLWKSDIASHFSNKRKK [F6M], the abundance fitness is -0.209 ± 0.067. As for FLTKYLNKQPYPTRREIEKLAASLWLWKSDIASHFSNKRKK [F6L], the abundance fitness was -0.157 ± 0.045. As to FLTKYFNKQPYPTRREIEKLAASLWLWKSDIASHFSNKVKK [R39V], the abundance fitness is -0.185 ± 0.073.

For FLTKYFNKQPYPTRREIEKLAASLWLWKSDIASHFSNKLKK [R39L], the abundance fitness was found to be 0.031 ± 0.048. Next, FLTKYFNKQPYPTRREIEKLAASLWLDKSDIASHFSNKRKK [W27D]: -0.22 ± 0.17; FLTKYFNKQPYPTRREIEKLAASLWLCKSDIASHFSNKRKK [W27C]: -0.188 ± 0.061. As to FLTKYFNKQPYPTRREIEKLAASLWLNKSDIASHFSNKRKK [W27N], the abundance fitness was -0.295 ± 0.091.

On to FLTKYFNKQPYPTRREIEKLAASLWLVKSDIASHFSNKRKK [W27V], for which the abundance fitness is -0.061 ± 0.052. Next, FLTKYFNKQPYPTRREIEKLAASLWLAKSDIASHFSNKRKK [W27A]: -0.084 ± 0.052. Next, FLTKYFNKQPYPTRREIEKLAASLMLWKSDIASHFSNKRKK [W25M]: -0.009 ± 0.1; FLTKYFNKQPYPTRREIEKLAASLNLWKSDIASHFSNKRKK [W25N]: -0.021 ± 0.096; FLTKYFNKQPYPTRREIEKLAASLWLWKIDIASHFSNKRKK [S29I]: 0.031 ± 0.2. As to FLTKYFNKQPYPTRREIEKLAASLWLWKMDIASHFSNKRKK [S29M], the abundance fitness is -0.124 ± 0.14. Next, FLTKYFNKQPYPTRREIEKLAASLWLWKGDIASHFSNKRKK [S29G]: -0.014 ± 0.057; FLTKYFNKQPYPTRREIEKLAASLWLWKFDIASHFSNKRKK [S29F]: -0.43 ± 0.2. Next, FLNKYFNKQPYPTRREIEKLAASLWLWKSDIASHFSNKRKK [T3N]: 0.167 ± 0.092; FLKKYFNKQPYPTRREIEKLAASLWLWKSDIASHFSNKRKK [T3K]: 0.262 ± 0.056. Next, FLTKYFNKQPYPTRREIRKLAASLWLWKSDIASHFSNKRKK [E18R]: 0.066 ± 0.05; FLTKYFNKQPYPTRREIHKLAASLWLWKSDIASHFSNKRKK [E18H]: -0.257 ± 0.12; FLTKYFNKQPYPTRREIEKLAASAWLWKSDIASHFSNKRKK [L24A]: -0.026 ± 0.083. For FLTKYFNKQPYPTRREIEKLAASSWLWKSDIASHFSNKRKK [L24S], the abundance fitness is -0.483 ± 0.13.

For FLTKYFNKQPYPTRREIEKLAASCWLWKSDIASHFSNKRKK [L24C], the abundance fitness is -0.122 ± 0.095. Next, FLTKYFNKQPYPTRREIEKLAASQWLWKSDIASHFSNKRKK [L24Q]: -0.783 ± 0.22. Next, FLTKYFNKQPYPTRREIEKLAASKWLWKSDIASHFSNKRKK [L24K]: -0.321 ± 0.088.

As to FLTKYFNKQPYPTRREIEKLAASLWLWKSDIASHFPNKRKK [S36P], the abundance fitness is -0.047 ± 0.059. Next, FLTKYFNKQPYPTRREIEKLAASLWLWKSDIASHFTNKRKK [S36T]: 0.059 ± 0.067; FLTKYFNKQPYPTRREIEKLAASLWLWKSDIASHFKNKRKK [S36K]: 0.051 ± 0.08; FLTKYFNKQPYPTRREIEKLAASLWLWKSDIASHFRNKRKK [S36R]: 0.087 ± 0.064. Next, FLTKYFNKQPYPTRREIEKLAASLWLWKSDIASHFFNKRKK [S36F]: -0.055 ± 0.095.

FLTKYFNKQPYPTRREIEKLAASLWLWKSDIASHFYNKRKK [S36Y]: the abundance fitness was -0.37 ± 0.11. Regarding FLTKYFNKQPYPTRREIEKLAASLWLWKSDIASHFWNKRKK [S36W], the abundance fitness was -0.177 ± 0.14. With FLTKYFNKQPYPTRREIEKLAASLWLWKSDIASHFCNKRKK [S36C], the abundance fitness was -0.006 ± 0.064. Next, FLTKYFNKQPYPTRREIEKLVASLWLWKSDIASHFSNKRKK [A21V]: -0.128 ± 0.087.
